Source: US20260125457A1 (Janssen / Centocor, published 2026)

Key:
[1] = molecular target: T1, wild-type CALR (CALRW14.001) (UniProt P27797 18-417, limits assumed); test: SPR
T1 sequence (looked up): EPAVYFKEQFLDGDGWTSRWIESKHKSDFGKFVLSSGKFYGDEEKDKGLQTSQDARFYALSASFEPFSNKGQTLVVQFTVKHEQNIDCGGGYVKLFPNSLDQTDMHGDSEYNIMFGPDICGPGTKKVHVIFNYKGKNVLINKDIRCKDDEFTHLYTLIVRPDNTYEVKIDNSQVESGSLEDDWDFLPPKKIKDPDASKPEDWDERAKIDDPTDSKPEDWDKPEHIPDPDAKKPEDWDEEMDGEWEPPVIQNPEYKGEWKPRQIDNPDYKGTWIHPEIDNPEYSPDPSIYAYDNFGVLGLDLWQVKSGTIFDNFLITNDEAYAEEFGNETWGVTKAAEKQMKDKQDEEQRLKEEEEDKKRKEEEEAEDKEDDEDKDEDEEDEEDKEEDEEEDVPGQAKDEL

[2] = molecular target: T2, Flag/6xhis-CALRdel52 (CALRW12.007) (human, UniProt P27797 18-417); test: SPR
T2 construct: also called human CALRdel52
T2 sequence (looked up): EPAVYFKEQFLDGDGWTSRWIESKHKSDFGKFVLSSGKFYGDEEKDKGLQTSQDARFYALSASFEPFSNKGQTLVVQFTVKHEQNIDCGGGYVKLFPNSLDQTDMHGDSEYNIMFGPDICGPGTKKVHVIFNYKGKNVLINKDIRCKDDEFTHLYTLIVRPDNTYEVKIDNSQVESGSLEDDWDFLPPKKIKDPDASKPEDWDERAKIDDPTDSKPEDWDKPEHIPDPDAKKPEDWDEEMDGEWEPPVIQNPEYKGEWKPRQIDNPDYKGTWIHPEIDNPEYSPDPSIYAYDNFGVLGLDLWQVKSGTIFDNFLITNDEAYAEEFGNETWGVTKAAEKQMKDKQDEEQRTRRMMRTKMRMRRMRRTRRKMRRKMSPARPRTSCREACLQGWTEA

[3] = molecular target: T3, Avi/his-CalR-Ins5 (CALRW28.004) (human, UniProt P27797 18-417, limits assumed); test: SPR
T3 construct: also called human CALRins5
T3 sequence (looked up): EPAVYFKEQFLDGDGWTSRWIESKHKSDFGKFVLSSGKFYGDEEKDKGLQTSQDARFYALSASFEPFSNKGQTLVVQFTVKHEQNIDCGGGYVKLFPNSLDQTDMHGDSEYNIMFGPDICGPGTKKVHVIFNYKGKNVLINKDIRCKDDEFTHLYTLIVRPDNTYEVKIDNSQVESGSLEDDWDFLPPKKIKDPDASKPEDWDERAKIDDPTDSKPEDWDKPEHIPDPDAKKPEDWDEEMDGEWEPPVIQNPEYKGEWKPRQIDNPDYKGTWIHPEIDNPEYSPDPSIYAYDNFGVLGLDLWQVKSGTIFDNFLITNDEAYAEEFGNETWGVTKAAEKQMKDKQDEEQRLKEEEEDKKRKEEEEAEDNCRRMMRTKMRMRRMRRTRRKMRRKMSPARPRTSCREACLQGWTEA

[4] = molecular target: T4, CD3EG-HSA-6xHis (CD3W220.002) (human, UniProt P07766 22-118; P09693 23-103); test: SPR
T4 construct: also called human CD3; not shown: human serum albumin (HSA); 6xHis tag
T4 sequence (P07766 other isoform, or with tags, fused parts or gaps): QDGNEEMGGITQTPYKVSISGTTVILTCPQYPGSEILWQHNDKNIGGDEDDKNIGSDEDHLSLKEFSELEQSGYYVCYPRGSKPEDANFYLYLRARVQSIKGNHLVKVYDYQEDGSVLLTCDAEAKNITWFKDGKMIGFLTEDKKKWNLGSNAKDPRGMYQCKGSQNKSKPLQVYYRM

[5] = molecular target: T2, Flag/6xhis-CALRdel52 (CALRW12.007); test: SPR, forced degradation: Release
[6] = molecular target: T3, Avi/his-CalR-Ins5 (CALRW28.004); test: SPR, forced degradation: Release
[7] = molecular target: T4, CD3EG-HSA-6xHis (CD3W220.002); test: SPR, forced degradation: Release
[8] = molecular target: T2, Flag/6xhis-CALRdel52 (CALRW12.007); test: SPR, forced degradation: Metal Ox
[9] = molecular target: T3, Avi/his-CalR-Ins5 (CALRW28.004); test: SPR, forced degradation: Metal Ox
[10] = molecular target: T4, CD3EG-HSA-6xHis (CD3W220.002); test: SPR, forced degradation: Metal Ox
[11] = molecular target: T5, wild-type calreticulin (CALRwt) expressed with MPL in engineered cancer cells (UniProt P27797 18-417, limits assumed); test: flow cytometry on OCI-M2 MPL CALRwt cells, 1 h at 37 C, AF647 secondary antibody, Geometric Mean
T5 construct: whole, on cells; also called OCI-M2 MPL CALRwt
T5 sequence (looked up): T1 sequence (looked up)

- binding result [1]: no binding (tested: 300 nM)
- Kd [2]: 0.0602 nM
- Kd [3]: 0.0331 nM
- Kd [4]: 0.214 nM
- % Active [5]: 100%
- Kd [5]: 0.0602 nM
- % Active [6]: 100%
- Kd [6]: 0.0331 nM
- % Active [7]: 100%
- Kd [7]: 0.214 nM
- % Active [8]: 97%
- Kd [8]: 0.063 nM
- % Active [9]: 94%
- Kd [9]: 0.0356 nM
- % Active [10]: 91%
- Kd [10]: 0.272 nM
- binding result [11]: no binding (tested: 100 nM)
B1: C3CRB73 CALRmut x CD3 bispecific antibody (bispecific antibody, human IgG1, kappa, L234A L235A)
heavy: EVQLLESGGGLVQPGGSLRLSCAVSGIDLSNNAISWVRQAPGKGLEYVGVIGNTGDTYYADSAKGRFTISRDSSKTTLYLQMNSLRAEDTAVYFCVRGPPSYSSSVKNIWGQGTLVTVSSASTKGPSVFPLAPSSKSTSGGTAALGCLVKDYFPEPVTVSWNSGALTSGVHTFPAVLQSSGLYSLSSVVTVPSSSLGTQTYICNVNHKPSNTKVDKKVEPKSCDKTHTCPPCPAPEAAGGPSVFLFPPKPKDTLMISRTPEVTCVVVSVSHEDPEVKFNWYVDGVEVHNAKTKPREEQYNSTYRVVSVLTVLHQDWLNGKEYKCKVSNKALPAPIEKTISKAKGQPREPQVYTLPPSREEMTKNQVSLSCAVKGFYPSDIAVEWESNGQPENNYKTTPPVLDSDGSFFLVSKLTVDKSRWQQGNVFSCSVMHEALHNRFTQKSLSLSPGK
light: DIQMTQSPSSVSASVGDRVTITCQSSQSVYNNNWLSWLQQKPGKAPKRLIYDASKLESGVPSRFSGSGSGTDFTLTISSVQPEDAATYYCAGGFTGNVYTFGGGTKVEIKRTVAAPSVFIFPPSDEQLKSGTASVVCLLNNFYPREAKVQWKVDNALQSGNSQESVTEQDSKDSTYSLSSTLTLSKADYEKHKVYACEVTHQGLSSPVTKSFNRGEC
scFv: DIQMTQSPSSLSASVGDRVTITCRARQSIGTAIHWYQQKPGCAPKLLIKYASESISGVPSRFSGSGSGTDFTLTISSLQPEDFATYYCQQSGSWPYTFGQGTKLEIKGGGSGGSGGCPPCGGSGGEVQLVESGGGLVKPGGSLRLSCAASGFTFSRYNMNWVRQAPGKGLEWVSSISTSSNYIYYADSVKGRFTFSRDNAKNSLDLQMSGLRAEDTAIYYCTRGWGPFDYWGCGTLVTVSSEPKSSDKTHTCPPCPAPEAAGGPSVFLFPPKPKDTLMISRTPEVTCVVVSVSHEDPEVKFNWYVDGVEVHNAKTKPREEQYNSTYRVVSVLTVLHQDWLNGKEYKCKVSNKALPAPIEKTISKAKGQPREPQVYTLPPSREEMTKNQVSLWCLVKGFYPSDIAVEWESNGQPENNYKTTPPVLDSDGSFFLYSKLTVDKSRWQQGNVFSCSVMHEALHNHYTQKSLSLSPGK
notes: IgG1-AAS; also called JNJ-88549968; CALRB421 Fab x CD3 spFv
